The source of these data is patent publication US20210388087A1 (Chugai, published 2021).

To fix the notation:
B1: H183/L072 VH V100cM (antibody, name in Kabat numbering, V domains shown)
VH: QVQLVESGGGLVQPGRSLRLSCAASGFTFSNAWMHWVRQAPGKGLEWVAQIKDKGNAYAAYYAPSVKGRFTISRDDSKNSIYLQMNSLKTEDTAVYYCHYVHYASASTMLPAFGVDAWGQGTTVTVSS
VL: DIVMTQSPLSLPVTPGEPASISCQASQELVHMNRNTYLHWYQQKPGQAPRLLIYKVSNRFPGVPDRFSGSGSGTDFTLKISRVEAEDVGVYYCAQGTSVPFTFGQGTKLEIK
B2: H183/L072 VH Y55M (antibody, name in Kabat numbering, V domains shown)
VH: B1 VH with Y58M, M109V
VL: B1 VL
B3: H183/L072 VH Y55D (antibody, name in Kabat numbering, V domains shown)
VH: B1 VH with Y58D, M109V
VL: B1 VL
B4: H183/L072 VH V100iL (antibody, name in Kabat numbering, V domains shown)
VH: B1 VH with M109V, V115L
VL: B1 VL
B5: H183/L072 VH Y58G (antibody, name in Kabat numbering, V domains shown)
VH: B1 VH with Y61G, M109V
VL: B1 VL
B6: H183/L072 VH Y58E (antibody, name in Kabat numbering, V domains shown)
VH: B1 VH with Y61E, M109V
VL: B1 VL
B7: H183/L072 VH Y55E (antibody, name in Kabat numbering, V domains shown)
VH: B1 VH with Y58E, M109V
VL: B1 VL
B8: H183/L072 VH Y58D (antibody, name in Kabat numbering, V domains shown)
VH: B1 VH with Y61D, M109V
VL: B1 VL
B9: H183/L072 VH Y55L (antibody, name in Kabat numbering, V domains shown)
VH: B1 VH with Y58L, M109V
VL: B1 VL
B10: H183/L072 VH Y55Q (antibody, name in Kabat numbering, V domains shown)
VH: B1 VH with Y58Q, M109V
VL: B1 VL
B11: H183/L072 VH W33L (antibody, name in Kabat numbering, V domains shown)
VH: B1 VH with W33L, M109V
VL: B1 VL
B12: H183/L072 VH Y55G (antibody, name in Kabat numbering, V domains shown)
VH: B1 VH with Y58G, M109V
VL: B1 VL
B13: H183/L072 VH Y58M (antibody, name in Kabat numbering, V domains shown)
VH: B1 VH with Y61M, M109V
VL: B1 VL
B14: H183/L072 VH Y58I (antibody, name in Kabat numbering, V domains shown)
VH: B1 VH with Y61I, M109V
VL: B1 VL
B15: H183/L072 VH Y55N (antibody, name in Kabat numbering, V domains shown)
VH: B1 VH with Y58N, M109V
VL: B1 VL
B16: H183/L072 VH Y58Q (antibody, name in Kabat numbering, V domains shown)
VH: B1 VH with Y61Q, M109V
VL: B1 VL
B17: H183/L072 VH Y55F (antibody, name in Kabat numbering, V domains shown)
VH: B1 VH with Y58F, M109V
VL: B1 VL
B18: H183/L072 VH Y58H (antibody, name in Kabat numbering, V domains shown)
VH: B1 VH with Y61H, M109V
VL: B1 VL
B19: H183/L072 VH Y58L (antibody, name in Kabat numbering, V domains shown)
VH: B1 VH with Y61L, M109V
VL: B1 VL
B20: H183/L072 VH V100iM (antibody, name in Kabat numbering, V domains shown)
VH: B1 VH with M109V, V115M
VL: B1 VL
B21: H183/L072 VH Y58K (antibody, name in Kabat numbering, V domains shown)
VH: B1 VH with Y61K, M109V
VL: B1 VL
B22: H183/L072 VH Y55K (antibody, name in Kabat numbering, V domains shown)
VH: B1 VH with Y58K, M109V
VL: B1 VL
B23: H183/L072 VH Y58N (antibody, name in Kabat numbering, V domains shown)
VH: B1 VH with Y61N, M109V
VL: B1 VL
B24: H183/L072 VH Y58F (antibody, name in Kabat numbering, V domains shown)
VH: B1 VH with Y61F, M109V
VL: B1 VL
B25: H183/L072 VH Y58A (antibody, name in Kabat numbering, V domains shown)
VH: B1 VH with Y61A, M109V
VL: B1 VL
B26: H183/L072 VH Y58P (antibody, name in Kabat numbering, V domains shown)
VH: B1 VH with Y61P, M109V
VL: B1 VL
B27: H183/L072 VH Y55H (antibody, name in Kabat numbering, V domains shown)
VH: B1 VH with Y58H, M109V
VL: B1 VL
B28: H183/L072 VH V100iI (antibody, name in Kabat numbering, V domains shown)
VH: B1 VH with M109V, V115I
VL: B1 VL
B29: H183/L072 VH W33Y (antibody, name in Kabat numbering, V domains shown)
VH: B1 VH with W33Y, M109V
VL: B1 VL
B30: H183/L072 VH V100iA (antibody, name in Kabat numbering, V domains shown)
VH: B1 VH with M109V, V115A
VL: B1 VL
B31: H183/L072 VH Y55A (antibody, name in Kabat numbering, V domains shown)
VH: B1 VH with Y58A, M109V
VL: B1 VL

Residue numbers refer to the chain shown, from its start. Names and notes keep the numbering of the source.

T1 sequence (chain, as listed by the source limits assumed): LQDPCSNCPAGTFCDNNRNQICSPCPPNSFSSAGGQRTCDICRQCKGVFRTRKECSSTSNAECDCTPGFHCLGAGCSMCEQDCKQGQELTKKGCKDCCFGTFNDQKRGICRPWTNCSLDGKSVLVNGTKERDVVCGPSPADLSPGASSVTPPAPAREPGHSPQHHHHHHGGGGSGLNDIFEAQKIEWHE

This experiment concerns the target T1, Human CD137 ECD (human).
T1 construct: also called 4-1BB
The experiment is described as follows: single mutant vs template dBBDu183H.
For B1, the “fold change of affinity” value amounted to 1.3 fold.
Take B2: the “fold change of affinity” value worked out at 0.4 fold.
As to B3, the “fold change of affinity” value is 0.4 fold.
Take B4: the “fold change of affinity” value came out at 0.1 fold.
For B5, the “fold change of affinity” value was found to be 0.2 fold.
For the molecule B6, the “fold change of affinity” value is 0.3 fold.
B7: the “fold change of affinity” value was 0.4 fold.
The value for B8 was 0.1 fold; that for B9 was 0.3 fold; that for B10 was 0.2 fold.
On to B11, for which the “fold change of affinity” value came to 0 fold.
The value for B12 was 0.3 fold; that for B13 was 0.6 fold; that for B14 was 0.2 fold.
Turning to B15, the “fold change of affinity” value came to 0.7 fold.
Turning to B16, the “fold change of affinity” value turned out to be 0.4 fold.
For B17, the “fold change of affinity” value is 0.5 fold.
With B18, the “fold change of affinity” value worked out at 0.3 fold.
As to B19, the “fold change of affinity” value is 0.4 fold.
As for B20, the “fold change of affinity” value was 0 fold.
For B21, the “fold change of affinity” value turned out to be 0.3 fold.
Next, B22: 0.2 fold.
As to B23, the “fold change of affinity” value turned out to be 0.3 fold.
On to B24, for which the “fold change of affinity” value worked out at 0.9 fold.
B25: the “fold change of affinity” value came to 0.2 fold.
With B26, the “fold change of affinity” value was found to be 0.2 fold.
With B27, the “fold change of affinity” value turned out to be 0.4 fold.
B28: the “fold change of affinity” value was found to be 1.1 fold.
As for B29, the “fold change of affinity” value worked out at 0 fold.
For B30, the “fold change of affinity” value was found to be 0 fold.
As for B31, the “fold change of affinity” value was 0.3 fold.
